Laboratory results taken from PMC8181125.

Columns and labels:
Conditions in all cases: glycan lost; control: wild type
[1] = Western blot of transfected HEK293A cell lysates
[2] = Western blot of core domain in conditioned medium
[3] = immunofluorescence with Golgi marker TGN46, HEK293A
[4] = Western blot of full-length PDGF-C in conditioned medium
[5] = immunofluorescence colocalisation with ER marker ERP72, HEK293A

Row | Substance | expression_or_secretion [1] | other: proteolytic processing [2] | localisation_or_trafficking [3] | expression_or_secretion [4] | localisation_or_trafficking [5]
1 | PDGF-C (full-length, PC-FL): N25A | no change | no change | no change | no change | no change
2 | PDGF-C (full-length, PC-FL): N25A + N55A | no change |  |  | no change | 
3 | PDGF-C (full-length, PC-FL): N25A + N254A | no change | abolishes |  | no change | 
4 | PDGF-C (full-length, PC-FL): N55A | no change | no change | no change | no change | no change
5 | PDGF-C (full-length, PC-FL): N55A + N254A | no change | abolishes |  | no change | 
6 | PDGF-C (full-length, PC-FL): N254A | no change |  | no change | no change | no change
7 | PDGF-C (full-length, PC-FL): triple NA mutant | no change | abolishes |  | no change | 
